According to US20200131474A1, “METHODS AND COMPOSITIONS FOR OCULAR CELL THERAPY” (Novartis AG, priority 2018, published 2020):

Legend:
[1] = test system: genomic DNA purified from male human peripheral blood mononuclear cells; test: Biochemical method for potential off-target genomic sites cleaved by Cas9 and B2M guides; conditions: guide concentration of 64 nM
Description: A biochemical method (See, e.g., Cameron et al., Nature Methods. 6, 600-606; 2017) was used to determine potential off-target genomic sites cleaved by Cas9 and selected B2M guides.

[2] = test system: potential off-target sites; test: Off-target activity detection in limbal stem cells by targeted PCR and NGS; format: cell-based, human; conditions: edited LSCs vs non-edited PBMCs; positive sites of sequenced loci
Experimental: Potential CRISPR/Cas9-mediated cutting sites identified above were evaluated using targeted PCR and NGS in genome-edited expanded LSCs.
Selected sgRNAs (SEQ ID NO: 120, 162, 166, 167, 171, and 175) were further analyzed by amplicon sequencing in edited and non-edited cells. Primers flanking the potential off-target sites for each guide were used to detect indels by NGS analysis in edited LSCs and non-edited peripheral blood mononuclear cells. Sites that had either (1) a difference in mean indel percentage between edited and unedited cells greater than 0.5%; or (2) a p value less than 0.05 between edited and unedited indel were further analyzed. NGS sequence reads for such sites were assessed for characteristic indel patterns near the putative Cas9 cut site.

CD8+ T-cells = test: LSC/T-cell reaction assay (gene edited LSCs co-cultured with CD8+ T-cells); format: cell-based, human; conditions: B2M/HLA-Class I negative edited LSCs co-cultured 10 days with CD8+ T-cells from 4 donors
Experimental: An LSC/T-cell assay was performed in flat bottom 96well synthemax coated plates in duplicates and incubated in 5% CO2 at 37° C. for 10 days. RPMI-1640 supplemented with HEPES (100 μM), non-essential aas (10×), sodium pyruvate (10 mM), 2-Mercapthoethanol (10×), 10% FBS and 1% Penicillin-Streptomycin (Gibco by Life Technologies) was used as medium for co-culture. Alternatively, RPMI-1640 supplemented with HEPES (10 mM), non-essential aas (1×), sodium pyruvate (1 mM), 2-Mercapthoethanol (1×), 10% FBS and 1% Penicillin-Streptomycin (Gibco by Life Technologies) was used as medium for co-culture.
One day before co-culture, LSCs (stimulator cells) were passed and cultured to a confluency of around 70% (30′000-50′000 cells) and cultured with LSC medium including compound. On day two, peripheral blood mononuclear cells (PBMC) were separated using EDTA blood with the Ficoll-Paque method (GE Healthcare Life Sciences, cat #17-1440-03). […]
After 10 days, CD8+ cells were transferred to a U-bottomed 96-well plate and washed 3 times using autoMAC rinsing solution (Miltenyi Biotec, Cat #130-091-222) including MACS BSA stock solution (Miltenyi Biotec, Cat #130-091-376). Cells were measured on a BD LSRFortessa X-20. FACS data were analyzed using BD FACSDiva software and FlowJo software.

[3] = test system: beta-2-microglobulin gene; test: CRISPR/Cas9-mediated deletion of B2M in LSCs by nucleofection, FACS analysis; format: cell-based, human; conditions: Cas9 protein (SEQ ID NO: 107):sgRNA 1:10 nucleofection, LSCs passage 0, FACS
Experimental: The sgRNA ID SEQ NO 120 was tested for the ability to reduce or eliminate expression of B2M in LSCs using a nucleofection approach as follows.
LSCs at passage 0 were trypsinized with TryLE™Express Enzym (ThermoFisher, Cat #12605010) for 15 min in 5% CO2 at 37° C. After scraping the cells, the reaction was stopped by using cell culture medium containing 10% Serum and transferred to a falcon tube. After counting cells using Vi-cell 200′000 cells were prepared per reaction by transferring 200′000 cells in single tubes and centrifuged at 1000 rpm for 5 min.
The supernatant was aspirated using manually pipetting to avoid cell loss and the cells were resuspended in the Stem cell nucleofector solution II (Lonza, Cat #VPH-5022). Resuspend cells in nucleofector solution immediately before adding the Cas9 protein:sgRNA mixture. A stock of 100 μM (3.23 μg/μl) was prepared resuspending 5.1 nanomoles of single-guideRNA (sgRNA) in 51 μl 10 mM Tris buffer pH7.4. […]
In order to prevent cells sticking to the wall, collection tubes were filled with FACS buffer for 30 minutes before the sort and aspirated before adding the collection medium. […] FACS data were analyzed using BD FACSDiva software and FlowJo software.

B1: 1-CR004366: gRNA targeting B2M (Dharmacon); targeting domain GAGUAGCGCGAGCACAGCUA (SEQ ID NO: 108); sgRNA SEQ ID NO: 120 (nucleic acid)
guide: GAGUAGCGCGAGCACAGCUAGUUUUAGAGCUAGAAAUAGCAAGUUAAAAUAAGGCUAGUCCGUUAUCAACUUGAAAAAGUGGCACCGAGUCGGUGCUUUU
modifications: listed as RNA, chemistry not given here
off-target Site_Count [1]: 69 | Number of sites positive for off-target activity in LSCs [2]: zero | T-cell immunoresponse (CD8+ T-cells): almost completely eliminated | LSCs with deletion of B2M and elimination of HLA A, B and C (cells not expressing B2M) [3]: about 70%
